Results taken from patent US20260097105A1, “SYSTEMS, FORMULATIONS AND METHODS FOR GENERATING UNIVERSAL PEPTIDE/MHC COMPLEXES WITH ENGINEERED DISULFIDE CONNECTING THE HEAVY AND LIGHT CHAINS” (priority 2022, published 2026).

B1: … (peptide)
chain: ALIDVFHQY
B2: … (peptide)
peptide: KYNPIRTTF
modifications: not checked

Experiments:
[1] = biological target: WT HLA-A*29:02/β2m/[…] (human); assay: competition; settings: chains peptide; modification not given
[2] = biological target: open HLA-A*24:02 (G120C)/β2m (H31C)/… (human); assay: fluorescence polarization, peptide exchange, 200 nM pMHC

Row | Binder | IC50 [1] | fold of peptide exchange kinetics (Kassoc.) against WT HLA-A*24:02 [2]
1 | B1 | 49 nM | 
2 | B2 |  | 6 fold
